In IntAct's records for PubMed 29892012:

B1: E3 ubiquitin-protein ligase LNX (Homo sapiens), Q8TBB1 (parent)
chain: MNQPESANDPEPLCAVCGQAHSLEENHFYSYPEEVDDDLICHICLQALLDPLDTPCGHTYCTLCLTNFLVEKDFCPMDRKPLVLQHCKKSSILVNKLLNKLLVTCPFREHCTQVLQRCDLEHHFQTSCKGASHYGLTKDRKRRSQDGCPDGCASLTATAPSPEVSAAATISLMTDEPGLDNPAYVSSAEDGQPAISPVDSGRSNRTRARPFERSTIRSRSFKKINRALSVLRRTKSGSAVANHADQGRENSENTTAPEVFPRLYHLIPDGEITSIKINRVDPSESLSIRLVGGSETPLVHIIIQHIYRDGVIARDGRLLPGDIILKVNGMDISNVPHNYAVRLLRQPCQVLWLTVMREQKFRSRNNGQAPDAYRPRDDSFHVILNKSSPEEQLGIKLVRKVDEPGVFIFNVLDGGVAYRHGQLEENDRVLAINGHDLRYGSPESAAHLIQASERRVHLVVSRQVRQRSPDIFQEAGWNSNGSWSPGPGERSNTPKPLHPTITCHEKVVNIQKDPGESLGMTVAGGASHREWDLPIYVISVEPGGVISRDGRIKTGDILLNVDGVELTEVSRSEAVALLKRTSSSIVLKALEVKEYEPQEDCSSPAALDSNHNMAPPSDWSPSWVMWLELPRCLYNCKDIVLRRNTAGSLGFCIVGGYEEYNGNKPFFIKSIVEGTPAYNDGRIRCGDILLAVNGRSTSGMIHACLARLLKELKGRITLTIVSWPGTFL
partner: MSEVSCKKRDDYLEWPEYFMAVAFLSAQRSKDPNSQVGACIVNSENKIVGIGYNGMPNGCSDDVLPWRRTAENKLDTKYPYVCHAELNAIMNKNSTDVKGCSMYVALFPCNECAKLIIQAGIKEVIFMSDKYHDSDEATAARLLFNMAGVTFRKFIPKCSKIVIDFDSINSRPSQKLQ
B2: Histone-lysine N-methyltransferase SMYD1 (Homo sapiens), Q8NB12 (parent)
chain: MTIGRMENVEVFTAEGKGRGLKATKEFWAADIIFAERAYSAVVFDSLVNFVCHTCFKRQEKLHRCGQCKFAHYCDRTCQKDAWLNHKNECSAIKRYGKVPNENIRLAARIMWRVEREGTGLTEGCLVSVDDLQNHVEHFGEEEQKDLRVDVDTFLQYWPPQSQQFSMQYISHIFGVINCNGFTLSDQRGLQAVGVGIFPNLGLVNHDCWPNCTVIFNNGNHEAVKSMFHTQMRIELRALGKISEGEELTVSYIDFLNVSEERKRQLKKQYYFDCTCEHCQKKLKDDLFLGVKDNPKPSQEVVKEMIQFSKDTLEKIDKARSEGLYHEVVKLCRECLEKQEPVFADTNIYMLRMLSIVSEVLSYLQAFEEASFYARRMVDGYMKLYHPNNAQLGMAVMRAGLTNWHAGNIEVGHGMICKAYAILLVTHGPSHPITKDLEAMRVQTEMELRMFRQNEFMYYKMREAALNNQPMQVMAEPSNEPSPALFHKKQ
B3: E3 ubiquitin-protein ligase LNX (Homo sapiens), Q8TBB1 (parent)
chain: B1 chain
partner: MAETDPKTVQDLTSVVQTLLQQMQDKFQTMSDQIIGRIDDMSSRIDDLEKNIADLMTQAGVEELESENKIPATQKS
B4: Abl interactor 2 (Homo sapiens), Q9NYB9 (parent)
chain: MAELQMLLEEEIPGGRRALFDSYTNLERVADYCENNYIQSADKQRALEETKAYTTQSLASVAYLINTLANNVLQMLDIQASQLRRMESSINHISQTVDIHKEKVARREIGILTTNKNTSRTHKIIAPANLERPVRYIRKPIDYTILDDIGHGVKWLLRFKVSTQNMKMGGLPRTTPPTQKPPSPPMSGKGTLGRHSPYRTLEPVRPPVVPNDYVPSPTRNMAPSQQSPVRTASVNQRNRTYSSSGSSGGSHPSSRSSSRENSGSGSVGVPIAVPTPSPPSVFPAPAGSAGTPPLPATSASAPAPLVPATVPSSTAPNAAAGGAPNLADGFTSPTPPVVSSTPPTGHPVQFYSMNRPASRHTPPTIGGSLPYRRPPSITSQTSLQNQMNGGPFYSQNPVSDTPPPPPPVEEPVFDESPPPPPPPEDYEEEEAAVVEYSDPYAEEDPPWAPRSYLEKVVAIYDYTKDKEDELSFQEGAIIYVIKKNDDGWYEGVMNGVTGLFPGNYVESIMHYSE
partner: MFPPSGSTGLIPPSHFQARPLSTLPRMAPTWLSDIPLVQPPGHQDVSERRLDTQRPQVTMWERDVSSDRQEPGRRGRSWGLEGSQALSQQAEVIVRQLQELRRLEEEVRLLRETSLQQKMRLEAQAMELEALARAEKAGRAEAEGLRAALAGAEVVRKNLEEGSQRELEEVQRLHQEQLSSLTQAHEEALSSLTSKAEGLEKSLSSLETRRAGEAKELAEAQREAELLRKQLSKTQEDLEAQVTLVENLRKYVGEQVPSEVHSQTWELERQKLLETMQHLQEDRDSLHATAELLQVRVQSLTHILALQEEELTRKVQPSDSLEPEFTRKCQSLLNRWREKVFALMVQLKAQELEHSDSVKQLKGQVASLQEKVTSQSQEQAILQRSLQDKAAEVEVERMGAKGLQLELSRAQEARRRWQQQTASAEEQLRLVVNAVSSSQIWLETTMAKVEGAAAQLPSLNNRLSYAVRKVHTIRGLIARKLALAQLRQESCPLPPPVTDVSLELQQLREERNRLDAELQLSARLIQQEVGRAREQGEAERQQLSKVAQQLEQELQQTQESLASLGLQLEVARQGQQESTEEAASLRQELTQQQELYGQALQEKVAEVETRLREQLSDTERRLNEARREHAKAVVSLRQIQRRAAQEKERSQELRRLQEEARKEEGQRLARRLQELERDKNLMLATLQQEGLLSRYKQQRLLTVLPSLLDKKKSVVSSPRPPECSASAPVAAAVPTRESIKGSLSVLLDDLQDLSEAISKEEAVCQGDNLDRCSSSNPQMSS
B5: Abl interactor 2 (Homo sapiens), Q9NYB9 (parent)
chain: B4 chain
partner: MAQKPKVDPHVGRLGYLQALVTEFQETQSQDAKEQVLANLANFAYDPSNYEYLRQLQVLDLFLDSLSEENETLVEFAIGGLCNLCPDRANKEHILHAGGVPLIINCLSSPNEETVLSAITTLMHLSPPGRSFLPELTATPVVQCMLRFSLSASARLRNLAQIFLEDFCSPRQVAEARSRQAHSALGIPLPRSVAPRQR
B6: Zinc finger and BTB domain-containing protein 49 (Homo sapiens), Q6ZSB9 (parent)
chain: MDPVATHSCHLLQQLHEQRIQGLLCDCMLVVKGVCFKAHKNVLAAFSQYFRSLFQNSSSQKNDVFHLDVKNVSGIGQILDFMYTSHLDLNQDNIQVMLDTAQCLQVQNVLSLCHTFLKSATVVQPPGMPCNSTLSLQSTLTPDATCVISENYPPHLLQECSADAQQNKTLDESHPHASPSVNRHHSAGEISKQAPDTSDGSCTELPFKQPNYYYKLRNFYSKQYHKHAAGPSQERVVEQPFAFSTSTDLTTVESQPCAVSHSECILESPEHLPSNFLAQPVNDSAPHPESDATCQQPVKQMRLKKAIHLKKLNFLKSQKYAEQVSEPKSDDGLTKRLESASKNTLEKASSQSAEEKESEEVVSCENFNCISETERPEDPAALEDQSQTLQSQRQYACELCGKPFKHPSNLELHKRSHTGEKPFECNICGKHFSQAGNLQTHLRRHSGEKPYICEICGKRFAASGDVQRHIIIHSGEKPHLCDICGRGFSNFSNLKEHKKTHTADKVFTCDECGKSFNMQRKLVKHRIRHTGERPYSCSACGKCFGGSGDLRRHVRTHTGEKPYTCEICNKCFTRSAVLRRHKKMHCKAGDESPDVLEELSQAIETSDLEKSQSSDSFSQDTSVTLMPVSVKLPVHPVENSVAEFDSHSGGSYCKLRSMIQPHGVSDQEKLSLDPGKLAKPQMQQTQPQAYAYSDVDTPAGGEPLQADGMAMIRSSLAALDNHGGDPLGSRASSTTYRNSEGQFFSSMTLWGLAMKTLQNENELDQ
B7: Zinc finger and BTB domain-containing protein 49 (Homo sapiens), Q6ZSB9 (parent)
chain: B6 chain
partner: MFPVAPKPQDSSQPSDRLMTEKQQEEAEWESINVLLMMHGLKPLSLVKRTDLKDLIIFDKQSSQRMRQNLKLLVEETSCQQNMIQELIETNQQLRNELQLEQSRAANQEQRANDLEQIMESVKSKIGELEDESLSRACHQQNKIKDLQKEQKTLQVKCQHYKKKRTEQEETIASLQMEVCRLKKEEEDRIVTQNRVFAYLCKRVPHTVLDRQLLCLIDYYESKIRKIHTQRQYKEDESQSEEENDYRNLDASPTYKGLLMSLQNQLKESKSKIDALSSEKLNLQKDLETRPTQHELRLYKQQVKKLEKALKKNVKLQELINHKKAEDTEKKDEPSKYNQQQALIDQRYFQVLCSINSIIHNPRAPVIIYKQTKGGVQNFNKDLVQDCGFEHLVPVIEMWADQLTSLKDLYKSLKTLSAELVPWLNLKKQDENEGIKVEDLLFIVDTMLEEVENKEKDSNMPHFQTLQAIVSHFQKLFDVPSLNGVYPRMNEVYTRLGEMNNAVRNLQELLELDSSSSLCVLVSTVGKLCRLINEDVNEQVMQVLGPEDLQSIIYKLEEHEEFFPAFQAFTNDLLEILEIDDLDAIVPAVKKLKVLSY
B8: Abl interactor 2 (Homo sapiens), Q9NYB9 (parent)
chain: B4 chain
partner: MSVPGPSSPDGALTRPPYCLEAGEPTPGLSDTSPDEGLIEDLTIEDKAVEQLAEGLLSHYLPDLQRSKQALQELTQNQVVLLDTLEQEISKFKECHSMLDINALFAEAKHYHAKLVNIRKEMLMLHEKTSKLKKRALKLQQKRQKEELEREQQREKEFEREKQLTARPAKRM

Variants of: B1
Details: with dctd_human DCTD

effect of a mutation on the interaction	Variant
disrupting interaction strength	E295K

Variants of: B2
Details: with bhe40_human BHLHE40, O14503
Sequence of bhe40_human BHLHE40, O14503 (O14503 whole entry): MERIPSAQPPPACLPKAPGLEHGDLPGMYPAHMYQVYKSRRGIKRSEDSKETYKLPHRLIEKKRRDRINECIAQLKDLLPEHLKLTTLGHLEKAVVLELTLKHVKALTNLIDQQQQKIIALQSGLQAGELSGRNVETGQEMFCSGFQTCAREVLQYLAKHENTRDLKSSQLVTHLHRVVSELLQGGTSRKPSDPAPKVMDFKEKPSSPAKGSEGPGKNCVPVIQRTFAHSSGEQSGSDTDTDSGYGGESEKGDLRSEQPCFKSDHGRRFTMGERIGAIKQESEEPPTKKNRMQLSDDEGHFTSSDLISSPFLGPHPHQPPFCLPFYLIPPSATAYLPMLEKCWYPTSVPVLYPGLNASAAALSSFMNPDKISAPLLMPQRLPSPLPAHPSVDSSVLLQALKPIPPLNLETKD

effect of a mutation on the interaction	Variant
with no effect	Q443R

Variants of: B3
Details: with hsbp1_human HSBP1, O75506

effect of a mutation on the interaction	Variant
disrupting interaction strength	E295K

Variants of: B4
Details: with cchcr_human CCHCR1, Q8TD31

Variant	effect of a mutation on the interaction
R373C	with no effect

Variants of: B5
Details: with armc7_human ARMC7, Q9H6L4

effect of a mutation on the interaction	Variant
with no effect	E202K

Variants of: B6
Details: with gopc_human GOPC

effect of a mutation on the interaction	Variant
with no effect	D88V

Variants of: B7
Details: with cep70_human CEP70, Q8NHQ1

effect of a mutation on the interaction	Variant
with no effect	D88V

Variants of: B8
Details: with bl1s6_human BLOC1S6, Q9UL45

effect of a mutation on the interaction	Variant
with no effect	R373C

Variants of: B8
Details: with bl1s6_human BLOC1S6, Q9UL45
Remark: another data set of the same source

effect of a mutation on the interaction	Variant
with no effect	E202K
